Values of other authors as cited in paper PMC3648593.

Biological target: Met (Homo sapiens) (UniProt P08581)
Sequence of UniProt P08581 (P08581 25-932): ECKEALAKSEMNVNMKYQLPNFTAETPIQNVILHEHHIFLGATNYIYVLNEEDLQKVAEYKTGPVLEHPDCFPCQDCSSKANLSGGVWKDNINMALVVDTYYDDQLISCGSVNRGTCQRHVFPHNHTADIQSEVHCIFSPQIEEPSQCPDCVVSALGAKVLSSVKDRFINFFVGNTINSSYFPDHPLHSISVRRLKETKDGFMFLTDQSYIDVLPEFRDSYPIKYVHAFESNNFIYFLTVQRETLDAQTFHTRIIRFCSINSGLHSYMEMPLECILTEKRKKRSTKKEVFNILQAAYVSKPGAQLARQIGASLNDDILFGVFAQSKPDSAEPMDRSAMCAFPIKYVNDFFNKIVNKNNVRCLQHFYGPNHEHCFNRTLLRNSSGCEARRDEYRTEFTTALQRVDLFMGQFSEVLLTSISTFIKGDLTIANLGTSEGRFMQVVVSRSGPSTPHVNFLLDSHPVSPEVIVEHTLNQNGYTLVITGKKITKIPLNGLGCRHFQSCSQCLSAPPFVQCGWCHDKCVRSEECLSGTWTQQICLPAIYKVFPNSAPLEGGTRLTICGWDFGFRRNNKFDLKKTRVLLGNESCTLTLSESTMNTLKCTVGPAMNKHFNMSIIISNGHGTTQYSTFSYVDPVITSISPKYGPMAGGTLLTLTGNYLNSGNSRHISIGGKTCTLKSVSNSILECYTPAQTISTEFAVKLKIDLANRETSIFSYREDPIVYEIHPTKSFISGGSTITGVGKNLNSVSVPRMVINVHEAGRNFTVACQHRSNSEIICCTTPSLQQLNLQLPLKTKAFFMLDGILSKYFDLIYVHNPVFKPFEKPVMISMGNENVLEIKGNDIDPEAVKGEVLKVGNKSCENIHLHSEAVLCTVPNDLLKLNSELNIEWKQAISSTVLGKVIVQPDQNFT

Decorin (from UniProt P07585)
Kd: 2 nM
